Data: the supplement of paper PMC5998384

Legend:
HeLa Kyoto [1] = assay: solubility in G1/S (NP-40 vs SDS abundance) (log2 ratio); higher = more soluble; settings: cell cycle stage: G1/S
HeLa Kyoto [2] = assay: melting temperature (median over replicates), in situ; higher = more thermally stable
HeLa Kyoto [3] = assay: solubility change mitosis vs G1/S (difference of NP-40 vs SDS log2 ratios) (log2 ratio difference); higher = more soluble in mitosis
HeLa Kyoto [4] = assay: thermal stability score vs G1/S (z-score of summed log2 fold changes over temperatures); higher = more thermally stable than in G1/S
[5] = cell cycle stage: early G1 (4.5 h after nocodazole release)
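Wherever melting temperature (median over replicates), in situ is given: HeLa Kyoto cells synchronized by double thymidine or nocodazole block, proteins quantified by TMT10plex mass spectrometry, three independent biological replicates.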
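Wherever solubility change mitosis vs G1/S (difference of NP-40 vs SDS log2 ratios) is given: synchronized HeLa Kyoto cells (double thymidine block for G1/S, nocodazole release for mitosis), protein amounts in NP-40 versus SDS lysates quantified by mass spectrometry, three biological replicates.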
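Wherever solubility in G1/S (NP-40 vs SDS abundance) is given: HeLa Kyoto cells arrested at G1/S by double thymidine block, proteins quantified by TMT10plex mass spectrometry in mild NP-40 versus SDS extracts, three biological replicates.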
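Wherever thermal stability score vs G1/S (z-score of summed log2 fold changes over temperatures) is given: synchronized HeLa Kyoto cells, proteins quantified by TMT10plex mass spectrometry, three biological replicates, mitosis taken 0.5 h after nocodazole release, G1/S directly after double thymidine block.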

| Sequence | solubility in G1/S (log2) (HeLa Kyoto [1]) | melting temperature (HeLa Kyoto [2]; cell cycle stage: G1/S) [°C] | melting temperature (HeLa Kyoto [2]; cell cycle stage: mitosis) [°C] | solubility change mitosis (log2) (HeLa Kyoto [3]) | thermal stability score (HeLa Kyoto [4]; [5]) | thermal stability score (HeLa Kyoto [4]; cell cycle stage: mitosis) |
| --- | --- | --- | --- | --- | --- | --- |
| MPSSLLGAAMPASTSAAALQEALENAGRLIDRQLQEDRMYPDLSELLMVSAPNNPTVSGMSDMDYPLQGPGLLSVPNLPEISSIRRVPLPPELVEQFGHMQCNCMMGVFPPISRAWLTIDSDIFMWNYEDGGDLAYFDGLSETILAVGLVKPKAGIFQPHVRHLLVLATPVDIVILGLSYANLQTGSGVLNDSLSGGMQLLPDPLYSLPTDNTYLLTITSTDNGRIFLAGKDGCLYEVAYQAEAGWFSQRCRKINHSKSSLSFLVPSLLQFTFSEDDPILQIAIDNSRNILYTRSEKGVIQVYDLGQDGQGMSRVASVSQNAIVSAAGNIARTIDRSVFKPIVQIAVIENSESLDCQLLAVTHAGVRLYFSTCPFRQPLARPNTLTLVHVRLPPGFSASSTVEKPSKVHRALYSKGILLMAASENEDNDILWCVNHDTFPFQKPMMETQMTAGVDGHSWALSAIDELKVDKIITPLNKDHIPITDSPVVVQQHMLPPKKFVLLSAQGSLMFHKLRPVDQLRHLLVSNVGGDGEEIERFFKLHQEDQACATCLILACSTAACDREVSAWATRAFFRYGGEAQMRFPTTLPPPSNVGPILGSPVYSSSPVPSGSPYPNPSFLGTPSHGIQPPAMSTPVCALGNPATQATNMSCVTGPEIVYSGKHNGICIYFSRIMGNIWDASLVVERIFKSGNREITAIESSVPCQLLESVLQELKGLQEFLDRNSQFAGGPLGNPNTTAKVQQRLIGFMRPENGNPQQMQQELQRKFHEAQLSEKISLQAIQQLVRKSYQALALWKLLCEHQFTIIVAELQKELQEQLKITTFKDLVIRDKELTGALIASLINCYIRDNAAVDGISLHLQDICPLLYSTDDAICSKANELLQRSRQVQNKTEKERMLRESLKEYQKISNQVDLSNVCAQYRQVRFYEGVVELSLTAAEKKDPQGLGLHFYKHGEPEEDIVGLQAFQERLNSYKCITDTLQELVNQSKAAPQSPSVPKKPGPPVLSSDPNMLSNEEAGHHFEQMLKLSQRSKDELFSIALYNWLIQVDLADKLLQVASPFLEPHLVRMAKVDQNRVRYMDLLWRYYEKNRSFSNAARVLSRLADMHSTEISLQQRLEYIARAILSAKSSTAISSIAADGEFLHELEEKMEVARIQLQIQETLQRQYSHHSSVQDAVSQLDSELMDITKLYGEFADPFKLAECKLAIIHCAGYSDPILVQTLWQDIIEKELSDSVTLSSSDRMHALSLKIVLLGKIYAGTPRFFPLDFIVQFLEQQVCTLNWDVGFVIQTMNEIGVPLPRLLEVYDQLFKSRDPFWNRMKKPLHLLDCIHVLLIRYVENPSQVLNCERRRFTNLCLDAVCGYLVELQSMSSSVAVQAITGNFKSLQAKLERLH [NUP155] | -0.247 | 50.6 | 48.8 | -0.126 | -2.62 | -3.4 |
| MHKHQHCCKCPECYEVTRLAALRRLEPPGYGDWQVPDPYGPGGGNGASAGYGGYSSQTLPSQAGATPTPRTKAKLIPTGRDVGPVPPKPVPGKSTPKLNGSGPSWWPECTCTNRDWYEQVNGSDGMFKYEEIVLERGNSGLGFSIAGGIDNPHVPDDPGIFITKIIPGGAAAMDGRLGVNDCVLRVNEVDVSEVVHSRAVEALKEAGPVVRLVVRRRQPPPETIMEVNLLKGPKGLGFSIAGGIGNQHIPGDNSIYITKIIEGGAAQKDGRLQIGDRLLAVNNTNLQDVRHEEAVASLKNTSDMVYLKVAKPGSLHLNDMYAPPDYASTFTALADNHISHNSSLGYLGAVESKVSYPAPPQVPPTRYSPIPRHMLAEEDFTREPRKIILHKGSTGLGFNIVGGEDGEGIFVSFILAGGPADLSGELRRGDRILSVNGVNLRNATHEQAAAALKRAGQSVTIVAQYRPEEYSRFESKIHDLREQMMNSSMSSGSGSLRTSEKRSLYVRALFDYDRTRDSCLPSQGLSFSYGDILHVINASDDEWWQARLVTPHGESEQIGVIPSKKRVEKKERARLKTVKFHARTGMIESNRDFPGLSDDYYGAKNLKGQEDAILSYEPVTRQEIHYARPVIILGPMKDRVNDDLISEFPHKFGSCVPHTTRPRRDNEVDGQDYHFVVSREQMEKDIQDNKFIEAGQFNDNLYGTSIQSVRAVAERGKHCILDVSGNAIKRLQQAQLYPIAIFIKPKSIEALMEMNRRQTYEQANKIYDKAMKLEQEFGEYFTAIVQGDSLEEIYNKIKQIIEDQSGHYIWVPSPEKL [DLG3] | 0.141 | 52.9 | 53.1 | -0.139 | -0.454 | -1.05 |
| MQDDSIEASTSISQLLRESYLAETRHRGNNERSRAEPSSNPCHFGSPSGAAEGGGGQDDLPDLSAFLSQEELDESVNLARLAINYDPLEKADETQARKRLSPDQMKHSPNLSFEPNFCQDNPRSPTSSKESPQEAKRPQYCSETQSKKVFLNKAADFIEELSSLFKSHSSKRIRPRACKNHKSKLESQNKVMQENSSSFSDLSERRERSSVPIPIPADTRDNEVNHALEQQEAKRREAEQAASEAAGGDTTPGSSPSSLYYEEPLGQPPRFTQKLRSREVPEGTRVQLDCIVVGIPPPQVRWYCEGKELENSPDIHIVQAGNLHSLTIAEAFEEDTGRYSCFASNIYGTDSTSAEIYIEGVSSSDSEGDPNKEEMNRIQKPNEVSSPPTTSAVIPPAVPQAQHLVAQPRVATIQQCQSPTNYLQGLDGKPIIAAPVFTKMLQNLSASEGQLVVFECRVKGAPSPKVEWYREGTLIEDSPDFRILQKKPRSMAEPEEICTLVIAEVFAEDSGCFTCTASNKYGTVSSIAQLHVRGNEDLSNNGSLHSANSTTNLAAIEPQPSPPHSEPPSVEQPPKPKLEGVLVNHNEPRSSSRIGLRVHFNLPEDDKGSEASSEAGVVTTRQTRPDSFQERFNGQATKTPEPSSPVKEPPPVLAKPKLDSTQLQQLHNQVLLEQHQLQNPPPSSPKEFPFSMTVLNSNAPPAVTTSSKQVKAPSSQTFSLARPKYFFPSTNTTAATVAPSSSPVFTLSSTPQTIQRTVSKESLLVSHPSVQTKSPGGLSIQNEPLPPGPTEPTPPPFTFSIPSGNQFQPRCVSPIPVSPTSRIQNPVAFLSSVLPSLPAIPPTNAMGLPRSAPSMPSQGLAKKNTKSPQPVNDDNIRETKNAVIRDLGKKITFSDVRPNQQEYKISSFEQRLMNEIEFRLERTPVDESDDEIQHDEIPTGKCIAPIFDKRLKHFRVTEGSPVTFTCKIVGIPVPKVYWFKDGKQISKRNEHCKMRREGDGTCSLHIESTTSDDDGNYTIMAANPQGRISCSGHLMVQSLPIRSRLTSAGQSHRGRSRVQERDKEPLQERFFRPHFLQAPGDMVAHEGRLCRLDCKVSGLPPPELTWLLNGQPVLPDASHKMLVRETGVHSLLIDPLTQRDAGTYKCIATNKTGQNSFSLELSVVAKEVKKAPVILEKLQNCGVPEGHPVRLECRVIGMPPPVFYWKKDNETIPCTRERISMHQDTTGYACLLIQPAKKSDAGWYTLSAKNEAGIVSCTARLDIYAQWHHQIPPPMSVRPSGSRYGSLTSKGLDIFSAFSSMESTMVYSCSSRSVVESDEL [MYPN] | 0.0329 | 47.6 | 48.9 | -0.108 | -0.0918 | 3.44 |
| MMSQSSGSGDGNDDEATTSKDGGFSSPSPSAAAAAQEVRSATDGNTSTTPPTSAKKRKLNSSSSSSSNSSNEREDFDSTSSSSSTPPLQPRDSASPSTSSFCLGVSVAASSHVPIQKKLRFEDTLEFVGFDAKMAEESSSSSSSSSPTAATSQQQQLKNKSILISSVASVHHANGLAKSSTTVSSFANSKPGSAKKLVIKNFKDKPKLPENYTDETWQKLKEAVEAIQNSTSIKYNLEELYQAVENLCSYKISANLYKQLRQICEDHIKAQIHQFREDSLDSVLFLKKIDRCWQNHCRQMIMIRSIFLFLDRTYVLQNSMLPSIWDMGLELFRAHIISDQKVQNKTIDGILLLIERERNGEAIDRSLLRSLLSMLSDLQIYQDSFEQRFLEETNRLYAAEGQKLMQEREVPEYLHHVNKRLEEEADRLITYLDQTTQKSLIATVEKQLLGEHLTAILQKGLNNLLDENRIQDLSLLYQLFSRVRGGVQVLLQQWIEYIKAFGSTIVINPEKDKTMVQELLDFKDKVDHIIDICFLKNEKFINAMKEAFETFINKRPNKPAELIAKYVDSKLRAGNKEATDEELEKMLDKIMIIFRFIYGKDVFEAFYKKDLAKRLLVGKSASVDAEKSMLSKLKHECGAAFTSKLEGMFKDMELSKDIMIQFKQYMQNQNVPGNIELTVNILTMGYWPTYVPMEVHLPPEMVKLQEIFKTFYLGKHSGRKLQWQSTLGHCVLKAEFKEGKKELQVSLFQTLVLLMFNEGEEFSLEEIKQATGIEDGELRRTLQSLACGKARVLAKNPKGKDIEDGDKFICNDDFKHKLFRIKINQIQMKETVEEQASTTERVFQDRQYQIDAAIVRIMKMRKTLSHNLLVSEVYNQLKFPVKPADLKKRIESLIDRDYMERDKENPNQYNYIA [CUL4B] | 0.0519 | 54.6 | 54.4 | -0.261 | -1.29 | -1.57 |
| MQLTVKALQGRECSLQVPEDELVSTLKQLVSEKLNVPVRQQRLLFKGKALADGKRLSDYSIGPNSKLNLVVKPLEKVLLEEGEAQRLADSPPPQVWQLISKVLARHFSAADASRVLEQLQRDYERSLSRLTLDDIERLASRFLHPEVTETMEKGFSK [UBL4A] | 0.557 | 51.4 | 51.7 | 0.277 | 0.0718 | 0.136 |
| MPPPQGDVTALFLGPPGLGKSALIAALCDKDVETLEAPEGRPDSGVPSLRAAGPGLFLGELSCPPAAPGPWAAEANVLVLVLPGPEGNGEPLAPALGEAALAALARGTPLLAVRNLRPGDSQTAAQARDQTAALLNSAGLGAADLFVLPANCGSSDGCEELERLRAALQSQAEALRRLLPPAQDGFEVLGAAELEAVREAFETGGLEAALSWVRSGLERLGSARLDLAVAGKADVGLVVDMLLGLDPGDPGAAPASVPTAPTPFPAPERPNVVLWTVPLGHTGTATTAAAASHPTHYDALILVTPGAPTEKDWAQVQALLLPDAPLVCVRTDGEGEDPECLGEGKMENPKGESLKNAGGGGLENALSKGREKCSAGSQKAGSGEGPGKAGSEGLQQVVGMKKSGGGDSERAAALSPEDETWEVLEEAPPPVFPLRPGGLPGLCEWLRRALPPAQAGALLLALPPASPSAARTKAAALRAGAWRPALLASLAAAAAPLPGLGWACDVALLRGQLAEWRRGLGLEPTALARRERALGLASGELAARAHFPGPVTRAEVEARLGAWAGEGTAGGAALGALSFLWPAGGAAATGGLGYRAAHGVLLQALDEMRADAEAVLAPPEPAQ [IRGQ] | 0.437 | 51.3 | 51.3 | 0.141 | -0.649 | 0.0432 |
| MAFANFRRILRLSTFEKRKSREYEHVRRDLDPNEVWEIVGELGDGAFGKVYKAKNKETGALAAAKVIETKSEEELEDYIVEIEILATCDHPYIVKLLGAYYHDGKLWIMIEFCPGGAVDAIMLELDRGLTEPQIQVVCRQMLEALNFLHSKRIIHRDLKAGNVLMTLEGDIRLADFGVSAKNLKTLQKRDSFIGTPYWMAPEVVMCETMKDTPYDYKADIWSLGITLIEMAQIEPPHHELNPMRVLLKIAKSDPPTLLTPSKWSVEFRDFLKIALDKNPETRPSAAQLLEHPFVSSITSNKALRELVAEAKAEVMEEIEDGRDEGEEEDAVDAASTLENHTQNSSEVSPPSLNADKPLEESPSTPLAPSQSQDSVNEPCSQPSGDRSLQTTSPPVVAPGNENGLAVPVPLRKSRPVSMDARIQVAQEKQVAEQGGDLSPAANRSQKASQSRPNSSALETLGGEKLANGSLEPPAQAAPGPSKRDSDCSSLCTSESMDYGTNLSTDLSLNKEMGSLSIKDPKLYKKTLKRTRKFVVDGVEVSITTSKIISEDEKKDEEMRFLRRQELRELRLLQKEEHRNQTQLSNKHELQLEQMHKRFEQEINAKKKFFDTELENLERQQKQQVEKMEQDHAVRRREEARRIRLEQDRDYTRFQEQLKLMKKEVKNEVEKLPRQQRKESMKQKMEEHTQKKQLLDRDFVAKQKEDLELAMKRLTTDNRREICDKERECLMKKQELLRDREAALWEMEEHQLQERHQLVKQQLKDQYFLQRHELLRKHEKEREQMQRYNQRMIEQLKVRQQQEKARLPKIQRSEGKTRMAMYKKSLHINGGGSAAEQREKIKQFSQQEEKRQKSERLQQQQKHENQMRDMLAQCESNMSELQQLQNEKCHLLVEHETQKLKALDESHNQNLKEWRDKLRPRKKALEEDLNQKKREQEMFFKLSEEAECPNPSTPSKAAKFFPYSSADAS [STK10] | 0.0626 | 48.1 | 48.2 | -0.0397 | 1.19 | 2.43 |
